These are literature values, as cited in patent US10543185B2, “Method for treating idiopathic pulmonary fibrosis” (The University of Chicago, priority 2015, dated 2020).

The subject of this series is patients with idiopathic pulmonary fibrosis (IPF). Conditions: trial stopped early; cited from earlier work.

B1: interferon gamma-1b: study drug of the INSPIRE randomized clinical trial, compared to placebo (protein, UniProt P01579 24-161, looked up)
Interferon gamma: QDPYVKEAENLKKYFNAGHSDVADNGTLFLGILKNWKEESDRKIMQSQIVSFYFKLFKNFKDDQSIQKSVETIKEDMNVKFFNSNKKKRDDFEKLTNYSVTDLNVQRKAIHELIQVMAELSPAAKTGKRKRSQMLFRG
modifications: interferon gamma-1b
notes: study drug of the INSPIRE randomized clinical trial, compared to placebo
On to B1, for which the “Benefit compared to placebo at interim analysis” value is on record as “no benefit”.
